{"source": "paper PMC9932110", "key": {"[1]": {"molecular_target": "Armc8β (mouse)", "assay": "native gel or EMSA; blue native PAGE of Armc8β"}, "[2]": {"molecular_target": "Armc8β (mouse)", "assay": "SEC-MALS; Armc8β alone, dilution series from two purifications; molar mass at the peak against peak concentration, one-site and two-site models; monomer to dimer and higher"}, "[3]": {"molecular_target": "Armc8β (mouse)", "assay": "SEC-MALS; Twa1, Armc8β and their mixture at low concentrations"}, "[4]": {"molecular_target": "Armc8β (mouse)", "assay": "ITC; ITC-200, 25 °C, 20 mM tricine pH 8.0, 150 or 200 mM NaCl, 1 mM TCEP; 50-150 μM in the syringe, 10 times lower in the cell; one-site model"}, "[5]": {"molecular_target": "Twa1–Armc8β complex (mouse) (UniProt Q9D7M1)", "assay": "SEC-MALS; Tβ complex, dilution series; molar mass at the peak against peak concentration, one-site model; Tβ heterodimer to higher order oligomers"}, "[6]": {"molecular_target": "Wdr26 (mouse) (UniProt Q8C6G8)", "sequence (Q8C6G8 other isoform, or with tags, fused parts or gaps)": "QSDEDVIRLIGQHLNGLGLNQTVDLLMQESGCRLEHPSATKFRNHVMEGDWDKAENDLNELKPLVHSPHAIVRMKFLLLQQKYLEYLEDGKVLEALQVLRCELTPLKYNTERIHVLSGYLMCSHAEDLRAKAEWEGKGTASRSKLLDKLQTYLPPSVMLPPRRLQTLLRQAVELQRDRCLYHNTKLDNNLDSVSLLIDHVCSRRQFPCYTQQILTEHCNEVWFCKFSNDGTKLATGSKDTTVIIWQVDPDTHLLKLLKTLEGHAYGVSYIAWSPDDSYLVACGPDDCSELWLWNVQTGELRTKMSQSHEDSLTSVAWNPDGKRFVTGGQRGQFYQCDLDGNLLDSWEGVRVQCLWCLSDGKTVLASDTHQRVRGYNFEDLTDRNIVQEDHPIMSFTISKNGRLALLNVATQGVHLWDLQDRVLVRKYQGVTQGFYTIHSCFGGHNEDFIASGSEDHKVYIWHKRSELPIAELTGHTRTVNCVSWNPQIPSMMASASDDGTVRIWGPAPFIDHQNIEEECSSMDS", "assay": "ITC; ITC-200, 25 °C, 20 mM tricine pH 8.0, 150 or 200 mM NaCl, 1 mM TCEP; 50-150 μM in the syringe, 10 times lower in the cell; one-site model"}, "[7]": {"molecular_target": "muskelin (rat) (UniProt Q99PV3)", "sequence (Q99PV3 whole entry)": "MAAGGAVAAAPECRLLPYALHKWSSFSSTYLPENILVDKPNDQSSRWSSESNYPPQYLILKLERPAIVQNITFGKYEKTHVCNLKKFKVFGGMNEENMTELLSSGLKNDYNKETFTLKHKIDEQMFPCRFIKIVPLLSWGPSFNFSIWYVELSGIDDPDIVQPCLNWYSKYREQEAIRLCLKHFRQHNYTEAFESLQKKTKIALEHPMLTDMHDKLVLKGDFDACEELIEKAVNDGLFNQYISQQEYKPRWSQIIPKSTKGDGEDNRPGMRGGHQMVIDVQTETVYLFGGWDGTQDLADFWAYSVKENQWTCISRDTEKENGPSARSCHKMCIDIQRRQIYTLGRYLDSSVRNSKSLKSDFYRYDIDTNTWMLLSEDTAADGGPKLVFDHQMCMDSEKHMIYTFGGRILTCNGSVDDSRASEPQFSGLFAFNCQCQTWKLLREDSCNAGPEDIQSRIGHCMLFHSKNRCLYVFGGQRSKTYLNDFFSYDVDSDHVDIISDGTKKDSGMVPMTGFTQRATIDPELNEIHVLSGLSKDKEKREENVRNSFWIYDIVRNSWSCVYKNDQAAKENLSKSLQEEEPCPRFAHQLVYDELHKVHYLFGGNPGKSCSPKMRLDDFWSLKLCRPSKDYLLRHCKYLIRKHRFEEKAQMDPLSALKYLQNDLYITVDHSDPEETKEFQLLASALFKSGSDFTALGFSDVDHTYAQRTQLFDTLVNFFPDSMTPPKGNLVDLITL", "assay": "ITC; ITC-200, 25 °C, 20 mM tricine pH 8.0, 150 or 200 mM NaCl, 1 mM TCEP; 50-150 μM in the syringe, 10 times lower in the cell; one-site model"}}, "data": [{"substance": "Armc8β (natural protein)", "values": [{"measurement": "stoichiometry N", "setting": "[1]", "result": 3}, {"measurement": "KD high (two-site binding model)", "setting": "[2]", "result": 1800, "unit": "nM"}, {"measurement": "KD low (two-site binding model)", "setting": "[2]", "result": "> 40000", "unit": "nM"}, {"measurement": "Kd", "setting": "[2]", "result": 5100, "unit": "nM"}, {"measurement": "stoichiometry N", "setting": "[2]", "result": "1 to 2"}]}, {"substance": "Twa1 (from UniProt Q9D7M1 1-228) (natural protein)", "values": [{"measurement": "stoichiometry N", "setting": "[3]", "result": 1}, {"measurement": "Kd", "setting": "[4]", "result": 34.4, "unit": "nM"}]}, {"substance": "Twa1–Armc8β complex (from UniProt Q9D7M1 1-228)", "values": [{"measurement": "Kd", "setting": "[5]", "result": 6200, "unit": "nM"}, {"measurement": "stoichiometry N", "setting": "[5]", "result": 8.2}]}, {"substance": "RanBP9–Twa1 complex (from UniProt P69566 1-653; Q9D7M1 1-228)", "values": [{"measurement": "Kd", "setting": "[4]", "result": 8.1, "unit": "nM"}, {"measurement": "Kd", "setting": "[6]", "result": 3.4, "unit": "nM"}, {"measurement": "stoichiometry N", "setting": "[6]", "result": 0.95}, {"measurement": "Kd", "setting": "[7]", "result": 1.7, "unit": "nM"}, {"measurement": "stoichiometry N", "setting": "[7]", "result": 1}]}]}
